Here are results for two molecules from patent CN108640991A (JIANGSU QYUNS BIOMEDICINE CO LTD, dated 2018).

This assay has as its target T1, 人白介素17A (Human Interleukin-17A) (human, UniProt Q16552 24-155).
T1 construct: also called hIL-17A; IL-17A
In words: SPR Biacore T200, 25°C, antibody captured on Protein A CM5 chip, antigen in solution, 1:1 model.

T1 sequence (Q16552 24-155): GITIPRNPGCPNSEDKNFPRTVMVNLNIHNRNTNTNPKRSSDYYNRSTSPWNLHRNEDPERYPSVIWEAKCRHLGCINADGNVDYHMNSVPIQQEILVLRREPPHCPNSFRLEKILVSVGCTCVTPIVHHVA

B1: Ixekizumab (antibody, V domains shown)
VH: QVQLVQSGAEVKKPGSSVKVSCKASGYSFTDYHIHWVRQAPGQGLEWMGVINPMYGTTDYNQRFKGRVTITADESTSTAYMELSSLRSEDTAVYYCARYDYFTGTGVYWGQGTLVTVSS
VL: DIVMTQTPLSLSVTPGQPASISCRSSRSLVHSRGNTYLHWYLQKPGQSPQLLIYKVSNRFIGVPDRFSGSGSGTDFTLKISRVEAEDVGVYYCSQSTHLPFTFGQGTKLEIKR
The term Kd denotes a measure of binding affinity in units of concentration. Lower therefore signals higher affinity. The koff is a measure of how fast the partners let go of each other. A word on the kon: it is the second-order rate constant of association. Consider B1, for which binding was characterised by a dissociation constant (Kd) of 15.4 pM, the koff was determined as 2.58e-05 s⁻¹ and the kon is 1.7e+06 M⁻¹ s⁻¹.

B2: 抗人白介素17A单克隆抗体QX002N (antibody, V domains shown)
VH: EVQLQESGPGLVKPSETLSLTCTVSGIDLSLFYMSWIRQPPGKGLEWIGTIHEVASSYYASWAKGRVTISKDTSKNQFSLKLSSVTAADTAVYYCARETYSSRYPYPNIWGQGTLVTVSS
VL: DIQMTQSPSSVSASVGDRVTITCQASQNIGGSLAWYQQKPGKAPKLLIYGASSLASGVPSRFSGSGSGTDFTLTISSLQPEDFATYYCQSYNTISTYGLAFGGGTKVEIK
notes: Humanised from rabbit clone 37#; also called 37-5
As for B2, binding was characterised by a dissociation constant (Kd) of 7.07 pM, the koff is 2.36e-05 s⁻¹ and the kon was 3.35e+06 M⁻¹ s⁻¹.
